# B1: S. cerevisiae catalytic primase 1 (Pri1) (natural protein, UniProt P10363 1-409, looked up)
# chain: MTNSVKTNGPSSSDMEYYYKSLYPFKHIFNWLNHSPKPSRDMINREFAMAFRSGAYKRYNSFNSVQDFKAQIEKANPDRFEIGAIYNKPPRERDTLLKSELKALEKELVFDIDMDDYDAFRTCCSGAQVCSKCWKFISLAMKITNTALREDFGYKDFIWVFSGRRGAHCWVSDKRARALTDVQRRNVLDYVNVIRDRNTDKRLALKRPYHPHLARSLEQLKPFFVSIMLEEQNPWEDDQHAIQTLLPALYDKQLIDSLKKYWLDNPRRSSKEKWNDIDQIATSLFKGPKQDSHIIKLRECKEDLVLMTLYPKLDVEVTKQTIHLLKAPFCIHPATGNVCVPIDESFAPEKAPKLIDLQTEMEKNNDVSLTALQPFINQFQAYVSSLLKNELGSVKREREDDDEPASLDF
# notes: DNA primase small (catalytic) subunit Pri1, S. cerevisiae; intact complex without truncations; also called p49; PriS
# B2: S. cerevisiae regulatory subunit primase 2 (Pri2) (natural protein, UniProt P20457 1-528, looked up)
# chain: MFRQSKRRIASRKNFSSYDDIVKSELDVGNTNAANQIILSSSSSEEEKKLYARLYESKLSFYDLPPQGEITLEQFEIWAIDRLKILLEIESCLSRNKSIKEIETIIKPQFQKLLPFNTESLEDRKKDYYSHFILRLCFCRSKELREKFVRAETFLFKIRFNMLTSTDQTKFVQSLDLPLLQFISNEEKAELSHQLYQTVSASLQFQLNLNEEHQRKQYFQQEKFIKLPFENVIELVGNRLVFLKDGYAYLPQFQQLNLLSNEFASKLNQELIKTYQYLPRLNEDDRLLPILNHLSSGYTIADFNQQKANQFSENVDDEINAQSVWSEEISSNYPLCIKNLMEGLKKNHHLRYYGRQQLSLFLKGIGLSADEALKFWSEAFTRNGNMTMEKFNKEYRYSFRHNYGLEGNRINYKPWDCHTILSKPRPGRGDYHGCPFRDWSHERLSAELRSMKLTQAQIISVLDSCQKGEYTIACTKVFEMTHNSASADLEIGEQTHIAHPNLYFERSRQLQKKQQKLEKEKLFNNGNH
# notes: DNA primase large (regulatory) subunit Pri2, S. cerevisiae (Pri2-NTD, 20-residue linker, Pri2-CTD with a 4Fe-4S cluster); intact complex without truncations; also called p58; PriL
# B3: S. cerevisiae polymerase accessory subunit Pol12 (natural protein, UniProt P38121 1-705, looked up)
# chain: MSGSIDVITHFGPDADKPEIITALENLTKLHALSVEDLYIKWEQFSNQRRQTHTDLTSKNIDEFKQFLQLQMEKRANQISSSSKVNTSTKKPVIKKSLNSSPLFGLSIPKTPTLKKRKLHGPFSLSDSKQTYNVGSEAETNEKGNSSLKLEFTPGMAEDAVGDSAPLSHAKSSDAKTPGSSTFQTPTTNTPTTSRQNVPAGEILDSLNPENIEISSGNPNVGLLSTEEPSYNQVKVEPFYDAKKYKFRTMRQNLQEASDVLDDQIESFTKIIQNHYKLSPNDFADPTIQSQSEIYAVGRIVPDSPTYDKFLNPESLSLETSRMGGVGRRVRLDLSQVNELSFFLGQIVAFKGKNANGDYFTVNSILPLPYPNSPVSTSQELQEFQANLEGSSLKVIVTCGPYFANDNFSLELLQEFIDSINNEVKPHVLIMFGPFIDITHPLIASGKLPNFPQFKTQPKTLDELFLKLFTPILKTISPHIQTVLIPSTKDAISNHAAYPQASLIRKALQLPKRNFKCMANPSSFQINEIYFGCSNVDTFKDLKEVIKGGTTSSRYRLDRVSEHILQQRRYYPIFPGSIRTRIKPKDVSTKKETNDMESKEEKVYEHISGADLDVSYLGLTEFVGGFSPDIMIIPSELQHFARVVQNVVVINPGRFIRATGNRGSYAQITVQCPDLEDGKLTLVEGEEPVYLHNVWKRARVDLIAS
# notes: intact complex without truncations; also called p70; B-subunit
# Key:
# [1] = target: T1, S. cerevisiae DNA polymerase catalytic subunit Pol1 (S. cerevisiae, UniProt P13382 1-1468); experiment: cryo-EM structure; purified yeast Pol α-primase alone (apo state, conformers I and II, 3.7 and 3.8 Å); ~1 mg/ml; 50 mM HEPES pH 7.5, 50 mM KGlu, 200 mM KAcetate, 1 mM DTT, 4 mM MgCl2; details: both partners purified
# T1 construct: DNA polymerase alpha catalytic subunit Pol1, S. cerevisiae, aa 1-1468 (Pol1-NTD aa 1-348, Pol1-core aa 349-1259, Pol1-CTD aa 1260-1468); intact complex without truncations; also called DNA polymerase 1; p180
# T1 sequence (looked up): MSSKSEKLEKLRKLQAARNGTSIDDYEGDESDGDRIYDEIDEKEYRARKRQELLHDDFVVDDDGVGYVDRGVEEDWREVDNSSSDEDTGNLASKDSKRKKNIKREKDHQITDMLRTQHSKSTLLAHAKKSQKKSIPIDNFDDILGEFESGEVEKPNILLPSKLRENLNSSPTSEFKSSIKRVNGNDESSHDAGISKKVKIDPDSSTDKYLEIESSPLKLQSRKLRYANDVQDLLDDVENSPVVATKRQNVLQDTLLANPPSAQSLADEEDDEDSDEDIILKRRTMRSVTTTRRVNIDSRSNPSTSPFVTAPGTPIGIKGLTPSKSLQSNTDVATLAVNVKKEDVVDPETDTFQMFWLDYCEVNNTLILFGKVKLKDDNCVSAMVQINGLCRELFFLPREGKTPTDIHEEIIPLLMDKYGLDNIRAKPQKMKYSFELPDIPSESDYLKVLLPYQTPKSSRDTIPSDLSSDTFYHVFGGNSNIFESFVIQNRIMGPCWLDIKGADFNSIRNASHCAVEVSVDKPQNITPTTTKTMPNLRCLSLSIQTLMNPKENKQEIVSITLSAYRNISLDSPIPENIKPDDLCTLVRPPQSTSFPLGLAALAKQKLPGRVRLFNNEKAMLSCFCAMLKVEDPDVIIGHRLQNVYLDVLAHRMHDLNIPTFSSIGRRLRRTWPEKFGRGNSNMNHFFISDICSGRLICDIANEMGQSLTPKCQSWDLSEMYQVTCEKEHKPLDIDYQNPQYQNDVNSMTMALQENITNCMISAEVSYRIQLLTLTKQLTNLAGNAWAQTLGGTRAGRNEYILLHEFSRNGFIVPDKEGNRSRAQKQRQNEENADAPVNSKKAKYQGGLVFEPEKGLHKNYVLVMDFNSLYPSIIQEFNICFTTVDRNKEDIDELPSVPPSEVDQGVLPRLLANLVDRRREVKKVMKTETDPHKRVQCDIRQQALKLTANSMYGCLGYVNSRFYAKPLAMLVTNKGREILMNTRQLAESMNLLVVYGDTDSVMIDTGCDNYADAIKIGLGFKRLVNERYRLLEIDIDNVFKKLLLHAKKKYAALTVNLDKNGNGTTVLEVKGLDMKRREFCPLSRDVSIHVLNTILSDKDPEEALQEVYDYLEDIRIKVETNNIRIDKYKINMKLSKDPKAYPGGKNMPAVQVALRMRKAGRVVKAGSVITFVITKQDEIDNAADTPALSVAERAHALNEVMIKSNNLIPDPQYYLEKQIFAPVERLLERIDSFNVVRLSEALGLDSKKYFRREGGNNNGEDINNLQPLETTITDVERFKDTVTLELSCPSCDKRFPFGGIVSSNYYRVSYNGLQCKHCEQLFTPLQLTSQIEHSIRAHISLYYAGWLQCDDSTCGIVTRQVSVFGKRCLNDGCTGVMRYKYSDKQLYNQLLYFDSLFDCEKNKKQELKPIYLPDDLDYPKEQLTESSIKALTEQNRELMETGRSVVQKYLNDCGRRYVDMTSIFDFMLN
# [2] = target: B2; experiment: as above; details: both partners purified
Binder,binding result [1],binding result [2]
B1,binds,binds
B2,binds,–
B3,binds,–

# Reference: article PMC10284912, “Molecular choreography of primer synthesis by the eukaryotic Pol α-primase” (Nature Communications, 2023)
